T1: FcγRIIb extracellular domain with C-terminal His tag (human, UniProt P31994 43-217)
T1 construct: extracellular domain; Soluble receptor expressed in FreeStyle293 cells and used as analyte in Biacore; also called FcgRIIb; 2b; not shown: His tag at the C terminus
T1 sequence (looked up): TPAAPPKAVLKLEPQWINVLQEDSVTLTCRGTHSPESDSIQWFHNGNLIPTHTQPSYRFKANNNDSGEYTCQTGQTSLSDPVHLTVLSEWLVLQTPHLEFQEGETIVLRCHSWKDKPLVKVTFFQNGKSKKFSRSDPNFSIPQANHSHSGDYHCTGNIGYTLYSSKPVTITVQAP

T2: FcγRIIa H (human, UniProt P12318 34-217)
T2 construct: extracellular domain; Soluble His-tagged extracellular domain expressed in FreeStyle293 cells; also called FcγRIIa type H; FcgRIIa H; not shown: His tag attached to the C terminus
T2 sequence (looked up): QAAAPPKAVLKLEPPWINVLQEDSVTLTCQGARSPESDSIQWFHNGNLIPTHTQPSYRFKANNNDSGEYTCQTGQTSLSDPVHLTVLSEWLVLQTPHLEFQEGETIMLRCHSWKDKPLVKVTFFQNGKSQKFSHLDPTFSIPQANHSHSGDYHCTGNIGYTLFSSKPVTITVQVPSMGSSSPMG

T3: FcγRIIb (human, UniProt P31994 43-217)
T3 construct: extracellular domain; Soluble His-tagged extracellular domain expressed in FreeStyle293 cells; also called FcgRIIb; 2b; not shown: His tag attached to the C terminus
T3 sequence (looked up): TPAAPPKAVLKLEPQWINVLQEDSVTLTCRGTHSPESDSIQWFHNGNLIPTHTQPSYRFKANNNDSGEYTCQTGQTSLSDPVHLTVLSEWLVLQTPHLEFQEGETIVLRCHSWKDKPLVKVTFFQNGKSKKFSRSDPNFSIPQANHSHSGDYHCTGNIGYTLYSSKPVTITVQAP

B1: heterodimerized antibody GpH7-A5/GpH7-B3 variant Y296_01G/GpL16-k0 (antibody, human IgG1, kappa)
heavy 1: not shown
heavy 2: not shown
light: DIVMTQSPLSLPVTPGEPASISCQASESLVHSNRNTYLHWYLQKPGQSPQLLIYKVSNRFSGVPDRFSGSGSGTDFTLKISRVEAEDVGVYYCSQNTHVPPTFGQGTKVEIERTVAAPSVFIFPPSDEQLKSGTASVVCLLNNFYPREAKVQWKVDNALQSGNSQESVTEQDSKDSTYSLSSTLTLSKADYEKHKVYACEVTHQGLSSPVTKSFNRGEC
notes: Substitution in only one H chain (GpH7-B3 side); also called He Ab
B2: heterodimerized antibody GpH7-A5/GpH7-B3 variant Q295_16H/GpL16-k0 (antibody, human IgG1, kappa)
heavy 1: not shown
heavy 2: not shown
light: DIVMTQSPLSLPVTPGEPASISCQASESLVHSNRNTYLHWYLQKPGQSPQLLIYKVSNRFSGVPDRFSGSGSGTDFTLKISRVEAEDVGVYYCSQNTHVPPTFGQGTKVEIERTVAAPSVFIFPPSDEQLKSGTASVVCLLNNFYPREAKVQWKVDNALQSGNSQESVTEQDSKDSTYSLSSTLTLSKADYEKHKVYACEVTHQGLSSPVTKSFNRGEC
notes: as for B1
B3: heterodimerized antibody GpH7-A5/GpH7-B3 variant Q295_18N/GpL16-k0 (antibody, human IgG1, kappa)
heavy 1: not shown
heavy 2: not shown
light: DIVMTQSPLSLPVTPGEPASISCQASESLVHSNRNTYLHWYLQKPGQSPQLLIYKVSNRFSGVPDRFSGSGSGTDFTLKISRVEAEDVGVYYCSQNTHVPPTFGQGTKVEIERTVAAPSVFIFPPSDEQLKSGTASVVCLLNNFYPREAKVQWKVDNALQSGNSQESVTEQDSKDSTYSLSSTLTLSKADYEKHKVYACEVTHQGLSSPVTKSFNRGEC
notes: as for B1
B4: heterodimerized antibody GpH7-A5/GpH7-B3 variant Q295_20W/GpL16-k0 (antibody, human IgG1, kappa)
heavy 1: not shown
heavy 2: not shown
light: DIVMTQSPLSLPVTPGEPASISCQASESLVHSNRNTYLHWYLQKPGQSPQLLIYKVSNRFSGVPDRFSGSGSGTDFTLKISRVEAEDVGVYYCSQNTHVPPTFGQGTKVEIERTVAAPSVFIFPPSDEQLKSGTASVVCLLNNFYPREAKVQWKVDNALQSGNSQESVTEQDSKDSTYSLSSTLTLSKADYEKHKVYACEVTHQGLSSPVTKSFNRGEC
notes: as for B1
B5: GpH7-A5/GpH7-B3 variant K326_19Q/GpL16-k0 (antibody, human IgG1, kappa)
heavy 1: not shown
heavy 2: not shown
light: DIVMTQSPLSLPVTPGEPASISCQASESLVHSNRNTYLHWYLQKPGQSPQLLIYKVSNRFSGVPDRFSGSGSGTDFTLKISRVEAEDVGVYYCSQNTHVPPTFGQGTKVEIERTVAAPSVFIFPPSDEQLKSGTASVVCLLNNFYPREAKVQWKVDNALQSGNSQESVTEQDSKDSTYSLSSTLTLSKADYEKHKVYACEVTHQGLSSPVTKSFNRGEC
notes: Heterodimerized anti-glypican-3 IgG1; mutation in the GpH7-B3 H chain only; also called He Ab
B6: GpH7-A5/GpH7-B3 variant K326_20W/GpL16-k0 (antibody, human IgG1, kappa)
heavy 1: not shown
heavy 2: not shown
light: DIVMTQSPLSLPVTPGEPASISCQASESLVHSNRNTYLHWYLQKPGQSPQLLIYKVSNRFSGVPDRFSGSGSGTDFTLKISRVEAEDVGVYYCSQNTHVPPTFGQGTKVEIERTVAAPSVFIFPPSDEQLKSGTASVVCLLNNFYPREAKVQWKVDNALQSGNSQESVTEQDSKDSTYSLSSTLTLSKADYEKHKVYACEVTHQGLSSPVTKSFNRGEC
notes: as for B5
B7: GpH7-A5/GpH7-B3 variant N325_02A/GpL16-k0 (antibody, human IgG1, kappa)
heavy 1: not shown
heavy 2: not shown
light: DIVMTQSPLSLPVTPGEPASISCQASESLVHSNRNTYLHWYLQKPGQSPQLLIYKVSNRFSGVPDRFSGSGSGTDFTLKISRVEAEDVGVYYCSQNTHVPPTFGQGTKVEIERTVAAPSVFIFPPSDEQLKSGTASVVCLLNNFYPREAKVQWKVDNALQSGNSQESVTEQDSKDSTYSLSSTLTLSKADYEKHKVYACEVTHQGLSSPVTKSFNRGEC
notes: as for B5

What was measured:
[1] = molecular target: T4, FcγRIa extracellular domain with C-terminal His tag (human, UniProt P12314 16-292); assay: SPR Biacore, relative binding amount
T4 construct: extracellular domain; Soluble receptor expressed in FreeStyle293 cells and used as analyte in Biacore; also called FcgRI; 1a; not shown: His tag at the C terminus

[2] = molecular target: T1, FcγRIIb extracellular domain with …; assay: SPR Biacore, relative binding amount
[3] = molecular target: T4, FcγRIa extracellular domain with …; assay: SPR Biacore; relative binding to FcγRIa divided by that to FcγRIIb
[4] = molecular target: T2, FcγRIIa H; assay: SPR (Biacore); He/Con_2aH divided by He/Con_2b (FcγRIIb) of the same antibody
[5] = molecular target: T2, FcγRIIa H; assay: SPR (Biacore), captured antibody, FcγR analyte; relative to GpH7-A5/GpH7-B3/GpL16-k0 = 100
Protocol: (§1) The heterodimerized antibodies He Abs in which one of the H chains was introduced with an alteration were assayed for their binding activities to each activating FcγR and inhibitory FcγR according to the method described in Example 4. […] The activating FcγRs in FIGS. 26, 27, 28, and 29 are FcγRIa, FcγRIIa (R), FcγRIIa (H), and FcγRIIIa, respectively.
(§2) Analysis of interaction between objective antibody and the FcγR was carried out using Biacore T100 (GE Healthcare). HBS-EP+ (GE Healthcare) was used as the running buffer, and the measurement temperature was set to 25° C. Chips produced by immobilizing the antigen peptide by the amine coupling method to a Series S Sencor Chip CM5 (GE Healthcare), or alternatively, chips produced by allowing preliminarily biotinylated antigen peptides to interact with and immobilize onto a Series S Sensor Chip SA (certified) (GE Healthcare) were used. Antibodies of interest were captured onto an antigen peptide-immobilized chip, and allowed to interact to each FcγR diluted with running buffer. To regenerate and repeatedly use the chip, the antibodies captured on the chip were washed off by reacting 10 mM glycine-HCl, pH 1.5.

[6] = molecular target: T3, FcγRIIb; assay: as above
Protocol: as §1, §2

T4 sequence (P12314 16-292): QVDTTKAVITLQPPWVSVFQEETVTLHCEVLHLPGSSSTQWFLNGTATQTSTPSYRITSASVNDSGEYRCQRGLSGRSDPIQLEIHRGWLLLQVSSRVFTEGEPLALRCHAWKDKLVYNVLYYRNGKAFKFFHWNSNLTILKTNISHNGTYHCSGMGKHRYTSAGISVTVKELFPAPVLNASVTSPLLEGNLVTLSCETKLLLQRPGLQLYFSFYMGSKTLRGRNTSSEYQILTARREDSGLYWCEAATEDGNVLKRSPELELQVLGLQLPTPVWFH

Binder	He/Con_1a [1]	He/Con_2b [2]	Ia/IIb He_1a/2b [3]	He_2aH/2b [4] [ratio]	He/Con_2aH [5]	He/Con_2b [6]
B1	103 % of GpH7-A5/GpH7-B3/GpL16-k0 (=100)	79.3 % of GpH7-A5/GpH7-B3/GpL16-k0 (=100)	1.29 ratio of He/Con_1a to He/Con_2b			
B2	102 % of GpH7-A5/GpH7-B3/GpL16-k0 (=100)	62.7 % of GpH7-A5/GpH7-B3/GpL16-k0 (=100)	1.64 ratio of He/Con_1a to He/Con_2b			
B3	102 % of GpH7-A5/GpH7-B3/GpL16-k0 (=100)	64.9 % of GpH7-A5/GpH7-B3/GpL16-k0 (=100)	1.58 ratio of He/Con_1a to He/Con_2b			
B4	93.7 % of GpH7-A5/GpH7-B3/GpL16-k0 (=100)	44.4 % of GpH7-A5/GpH7-B3/GpL16-k0 (=100)	2.11 ratio of He/Con_1a to He/Con_2b			
B5				0.73	101 relative (control = 100)	139 relative (control = 100)
B6				0.56	83.3 relative (control = 100)	148 relative (control = 100)
B7				0.74	47.6 relative (control = 100)	64.4 relative (control = 100)
